The results in this text go back to the Immune Epitope Database (IEDB).

What all share (assay): IEDB peptide-MHC binding, purified MHC/competitive/radioactivity; ≥ and ≤ were set here for values at or beyond the usual limits of such assays
Test [1] concerns the target HLA-A*02:01.
Test [2] has as its target HLA-A*02:02.
Test [3] addresses HLA-A*02:03.
In test [4] the target is HLA-A*02:06.
For test [5], the target named is HLA-A*68:02.
The mark [6] stands for this setting: source organism: Vaccinia virus WR.
Where [7] appears, read: source organism: Hepacivirus hominis.

For the sequence AAAATCALV, the IC50 (commonly the concentration at which inhibition is half-maximal) in test [1] (setting [6]) was 41 nM; in test [2] (setting [6]) it was 15 nM; in test [3] (setting [6]), 9.1 nM; in test [4] (setting [6]), 12 nM; in test [5] (setting [6]) it was 12 nM.
For the sequence AADLTQIFEV, the IC50 in test [1] (setting [6]) stood at 17 nM; in test [2] (setting [6]), 1240 nM; in test [3] (setting [6]) it was 404 nM; in test [4] (setting [6]), 11 nM; in test [5] (setting [6]), 4350 nM.
For AAIDRQVSV, the IC50 in test [1] (setting [6]) was determined as 1470 nM; in test [2] (setting [6]) it was 933 nM; in test [3] (setting [6]), 19 nM; in test [4] (setting [6]), 15 nM; in test [5] (setting [6]) it was 1440 nM.
For AAITLVVISV the same measures were 369 nM, 501 nM, 246 nM, 27 nM and 715 nM.
The corresponding values for AAVIIMAINV are 1450 nM, 1290 nM, 607 nM, 446 nM and 95 nM.
For AIAACAMLLV, the IC50 in test [1] (source organism: SARS-CoV1) was 36 nM; in test [2] (source organism: SARS-CoV1) it was 5.9 nM; in test [3] (source organism: SARS-CoV1), 32 nM; in test [4] (source organism: SARS-CoV1), 78 nM; in test [5] (source organism: SARS-CoV1) it was 1430 nM.
As to AIFNNRNLA, the half-maximal inhibitory concentration (IC50) in test [1] (setting [6]) is 3180 nM; in test [2] (setting [6]), 272 nM; in test [3] (setting [6]) it was 98 nM; in test [4] (setting [6]), 7.1 nM; in test [5] (setting [6]) it was 372 nM.
The corresponding values for AIFNNRNLAA are 1330 nM, 450 nM, 103 nM, 774 nM and 2860 nM.
Consider AIILASFSA, for which the IC50 was determined as 274 nM in test [1] (source organism: SARS-CoV1); 201 nM in test [2] (source organism: SARS-CoV1); 176 nM in test [3] (source organism: SARS-CoV1); 82 nM in test [4] (source organism: SARS-CoV1); 870 nM in test [5] (source organism: SARS-CoV1).
Consider AILHNIYRL, for which the IC50 in test [1] (setting [6]) is 48 nM; in test [2] (setting [6]) it was 106 nM; in test [3] (setting [6]) it was 814 nM; in test [4] (setting [6]), 44 nM; in test [5] (setting [6]), 2570 nM.
For the sequence AIMTRCLAV, the IC50 stood at 5.9 nM in test [1] (source organism: SARS-CoV1); 51 nM in test [2] (source organism: SARS-CoV1); 15 nM in test [3] (source organism: SARS-CoV1); 27 nM in test [4] (source organism: SARS-CoV1); 1300 nM in test [5] (source organism: SARS-CoV1).
Turning to AISAVYFKA, the IC50 was found to be 41 nM in test [1] (setting [6]); 3.7 nM in test [2] (setting [6]); 525 nM in test [3] (setting [6]); 149 nM in test [4] (setting [6]); 77 nM in test [5] (setting [6]).
Turning to AISYCRAFI, the IC50 in test [1] (setting [6]) is 169 nM; in test [2] (setting [6]), 17 nM; in test [3] (setting [6]), 149 nM; in test [4] (setting [6]), 146 nM; in test [5] (setting [6]), 98 nM.
For AITLVVISVI the same measures were 494 nM, 406 nM, 786 nM, 2000 nM and 2380 nM.
As to ALAEHISDSI, the IC50 turned out to be 8.7 nM in test [1] (setting [6]); 0.2 nM in test [2] (setting [6]); 0.34 nM in test [3] (setting [6]); 163 nM in test [4] (setting [6]); 272 nM in test [5] (setting [6]).
For the sequence ALIARCWYL, the IC50 was 0.46 nM in test [1] (source organism: SARS-CoV1); 0.2 nM in test [2] (source organism: SARS-CoV1); 17 nM in test [3] (source organism: SARS-CoV1); 0.98 nM in test [4] (source organism: SARS-CoV1); 1260 nM in test [5] (source organism: SARS-CoV1).
For ALINLVQYRI, the IC50 turned out to be 30 nM in test [1] (setting [6]); 8.3 nM in test [2] (setting [6]); 82 nM in test [3] (setting [6]); 417 nM in test [4] (setting [6]); 1770 nM in test [5] (setting [6]).
For ALKAYFTAKI the same measures were 1600 nM, 194 nM, 77 nM, 2780 nM and 4110 nM.
In the case of FISGIQYLA, the IC50 in test [2] (setting [7]) is 8.6 nM; in test [3] (setting [7]), 832 nM; in test [4] (setting [7]) it was 1340 nM; in test [5] (setting [7]), 12 nM.
FLITGVFDI: the IC50 stood at 0.69 nM in test [2] (source organism: SARS-CoV1), 0.76 nM in test [3] (source organism: SARS-CoV1), 1.5 nM in test [4] (source organism: SARS-CoV1) and 62 nM in test [5] (source organism: SARS-CoV1).
The corresponding values for FLLVTLAIL are 0.64 nM, 0.97 nM, 0.48 nM and 1900 nM.
For FLNRFTTTL the same measures were 0.66 nM, 1 nM, 58 nM and 286 nM.
For FLTSLLILV, the IC50 amounted to 2.2 nM in test [2] (source organism: SARS-CoV1), 12 nM in test [3] (source organism: SARS-CoV1), 3.3 nM in test [4] (source organism: SARS-CoV1) and 260 nM in test [5] (source organism: SARS-CoV1).
